B1: h0301-L0H1 (antibody, human IgG4 S228P, kappa)
heavy: not shown
light: EIVLTQSPATLSLSPGERATLSCKASQSVDYDGDNYMNWYQQKPGQAPRLLIYAASNLESGIPARFSGSGSGTDFTLTISSLEPEDFAVYYCHLSNEDLSTFGGGTKVEIKRTVAAPSVFIFPPSDEQLKSGTASVVCLLNNFYPREAKVQWKVDNALQSGNSQESVTEQDSKDSTYSLSSTLTLSKADYEKHKVYACEVTHQGLSSPVTKSFNRGEC
notes: also called Ab2; huAb 0301-L0H1
B2: h0301-L0H2 (antibody, human IgG4 S228P, kappa)
heavy: not shown
light: EIVLTQSPATLSLSPGERATLSCKASQSVDYDGDNYMNWYQQKPGQAPRLLIYAASNLESGIPARFSGSGSGTDFTLTISSLEPEDFAVYYCHLSNEDLSTFGGGTKVEIKRTVAAPSVFIFPPSDEQLKSGTASVVCLLNNFYPREAKVQWKVDNALQSGNSQESVTEQDSKDSTYSLSSTLTLSKADYEKHKVYACEVTHQGLSSPVTKSFNRGEC
notes: also called Ab3; huAb 0301-L0H2
B3: h0301-L1H1 (antibody, human IgG4 S228P, kappa)
heavy: not shown
light: NIVLTQSPATLSLSPGERATLSCKASQSVDYDGDNYMNWYQQKPGQAPRLLIYAASNLESGIPARFSGSGSGTDFTLTISSLEPEDFAVYYCHLSNEDLSTFGGGTKVEIKRTVAAPSVFIFPPSDEQLKSGTASVVCLLNNFYPREAKVQWKVDNALQSGNSQESVTEQDSKDSTYSLSSTLTLSKADYEKHKVYACEVTHQGLSSPVTKSFNRGEC
notes: also called Ab5; huAb 0301-L1H1
B4: h0301-L1H2 (antibody, human IgG4 S228P, kappa)
heavy: not shown
light: NIVLTQSPATLSLSPGERATLSCKASQSVDYDGDNYMNWYQQKPGQAPRLLIYAASNLESGIPARFSGSGSGTDFTLTISSLEPEDFAVYYCHLSNEDLSTFGGGTKVEIKRTVAAPSVFIFPPSDEQLKSGTASVVCLLNNFYPREAKVQWKVDNALQSGNSQESVTEQDSKDSTYSLSSTLTLSKADYEKHKVYACEVTHQGLSSPVTKSFNRGEC
notes: also called Ab6; huAb 0301-L1H2
B5: h0311-L0H2 (antibody, human IgG4 S228P, kappa, V domains shown)
VH: QVQLVQSGAEVKKPGSSVKVSCKASGYIFTDYNMHWVRQAPGQGLEWMGEINPNNGVVVYNQKFKGTTTLTVDKSTSTAYMELSSLRSEDTAVYYCTRALYHSNFGWYFDSWGQGTLVTVSS
VL: EIVLTQSPATLSLSPGERATLSCKASQSVDYDGDSHMNWYQQKPGQAPRLLIYTASNLESGIPARFSGSGSGTDFTLTISSLEPEDFAVYYCQQGNEDPWTFGQGTKVEIKR
notes: also called Ab15; huAb 0311-L0H2
B6: h0311-L1H1 (antibody, human IgG4 S228P, kappa, V domains shown)
VH: QVQLVQSGAEVKKPGSSVKVSCKASGYIFTDYNMHWVRQAPGQGLEWMGEINPNNGVVVYNQKFKGRVTITVDKSTSTAYMELSSLRSEDTAVYYCTRALYHSNFGWYFDSWGQGTLVTVSS
VL: DIVLTQSPATLSLSPGERATLSCKASQSVDYDGDSHMNWYQQKPGQAPRLLIYTASNLESGIPARFSGSGSGADFTLTISSLEPEDFAVYYCQQGNEDPWTFGQGTKVEIKR
notes: also called Ab14; huAb 0311-L1H1
B7: h0302-L1H1 (antibody, human IgG4 S228P, kappa, V domains shown)
VH: QVQLVQSGAEVKKPGSSVKVSCKASGYTFSDFNIHWVRQAPGQGLEWMGYINPYTDVTVYNEKFKGRVTITSDKSTSTAYMELSSLRSEDTAVYYCASYFDGTFDYALDYWGQGTLVTVSS
VL: EIVLTQSPATLSLSPGERATLSCRASESVDNYGLSFMNWYQQKPGQAPRLLIYTASNLESGIPARFSGSGSRTDFTLTISSLEPEDFAVYYCQQSKELPWTFGQGTKVEIKR
notes: also called Ab8; huAb 0302-L1H1
B8: h0302-L0H2 (antibody, human IgG4 S228P, kappa, V domains shown)
VH: QVQLVQSGAEVKKPGSSVKVSCKASGYTFSDFNIHWVRQAPGQGLEWIGYINPYTDVTVYNEKFKGRATLTSDKSTSTAYMELSSLRSEDTAVYYCASYFDGTFDYALDYWGQGTLVTVSS
VL: EIVLTQSPATLSLSPGERATLSCRASESVDNYGLSFMNWYQQKPGQAPRLLIYTASNLESGIPARFSGSGSGTDFTLTISSLEPEDFAVYYCQQSKELPWTFGQGTKVEIKR
notes: also called Ab10; huAb 0302-L0H2

How the values were obtained:
[1] = target: T1, cynoCSF1R ECD-Fc (cynomolgus); assay: competition ELISA, blocking of human CSF1 binding to cynoCSF1R ECD-Fc
T1 construct: also called cynomolgus CSF1R ECD
Experimental: The humanized antibodies, along with the parental chimeric antibodies (cAbs), were tested for their ability to block human CSF1 binding to human and cynomolgus CSF1R ECD, as follows.
Recombinant Human CSF1 (M-CSF; R&D Systems) was biotinylated using an NH₂-Biotin Labeling Kit (Dojindo Molecular Technologies). One hundred μl of 1 μg/ml biotinylated CSF1 in PBST/0.1% BSA was added to the wells of Reacti-Bind Streptavidin coated plates (Pierce) pre-blocked with SuperBlock blocking buffer (Pierce) according to the manufacturer's instructions. Fifty μl of 0.5× serial dilutions of the humanized antibody or parental chimeric antibody, beginning with 2000 ng/ml, was incubated with 50 ng/ml hCSF1R ECD.506-Fc (SEQ ID NO: 6; FivePrime Therapeutics) or 50 ng/ml cynoCSF1R ECD-Fc (FivePrime Therapeutics, SEQ ID NO: 8, but without the 19 amino acid leader sequence) in 100 μl PBST/0.1% BSA for 90 min at RT, after which the admix was transferred to one or more wells of a ligand-coated plate. After 90 min at RT, wells were washed with PBST, and a 1:5000 dilution of an Fc-fragment-specific peroxidase-conjugated goat anti-human IgG (Jackson Immuno Research) in PBST/0.1% BSA was added to each well. After incubation at RT for 60 min, wells were washed with PBST/0.1% BSA, and o-phenylenediamine dihydrochloride peroxidase substrate (Sigma) was added to each well. After incubation at RT for 30 min, A450 values of each well were read directly on a SpectraMaxPlus spectrophotometer with SoftMaxPro software (Molecular Devices).

[2] = target: human CSF1R on CSF1R (SEQ ID NO: 2)-transfected CHO cells (human, UniProt P07333 20-972); assay: cell-based or functional assay
[3] = target: T2, mCSF1R ECD-Fc (mouse); assay: ELISA, plate coated with mCSF1R ECD-Fc, detection anti-human kappa-HRP, A450
T2 construct: also called mouse CSF1R ECD
Experimental: (§1) Ninety-six well clear-bottom ELISA plates were coated overnight with 1 μg/ml recombinant hCSF1R ECD.506-Fc (SEQ ID NO: 6; FivePrime Therapeutics) or Human M-CSF R Fc Chimera (R&D Systems) in PBS. The next morning, wells were washed four times with 0.05% Tween20 in PBS (PBST) and blocked with Blocker-Blotto (Pierce). Fifty μl of 0.5× serial dilutions of the humanized antibody or parental chimeric antibody, beginning with 2000 ng/ml, diluted 1:1 in Blocker-Blotto were added to the CSF1R-coated wells. After incubation at room temperature (RT) for 90 min, wells were washed four times with PBST, and a 1:5000 dilution of a peroxidase-conjugated Goat anti-Human kappa Light chain antibody (Sigma) in Blocker-Blotto was added to each well. After incubation at RT for 60 min, wells were washed four times with PBST, and 50 μl o-phenylenediamine dihydrochloride peroxidase substrate (Sigma) was added to each well. After incubation at RT for 30 min, A450 values of each well were read directly on a SpectraMaxPlus spectrophotometer with SoftMaxPro software (Molecular Devices).
(§2) The binding curve for each humanized antibody binding to mouse CSF1R ECD was determined as described above for human CSF1R, except the wells of the clear-bottom ELISA plates were coated overnight with 2 μg/ml recombinant mCSF1R ECD-Fc (FivePrime Therapeutics, SEQ ID NO: 93).

[4] = target: T3, hCSF1R ECD.506 (human, UniProt P07333 20-506); assay: SPR Biacore T100, antibody captured on anti-human IgG, hCSF1R ECD.506 as analyte, 1:1 model
T3 construct: also called human CSF1R ECD
Experimental: The kₐ, kd, and KD for binding to human CSF1R ECD was determined for each of the humanized antibodies as follows.
Binding kinetics of anti-CSF1R humanized antibodies to CSF1R ECD was determined using Biacore T100 Surface Plasmon Resonance (SPR) (GE Healthcare Life Sciences, Piscataway, N.Y.). Each of the humanized anti-CSF1R antibodies was captured on a CM5 sensor chip immobilized with anti-Human IgG antibody using the Human antibody capture kit (GE Healthcare Life Sciences, Piscataway, N.Y.) at 150 RU so that the Rmax value for hCSF1R ECD.506 (SEQ ID NO: 5) binding was 100 RU. Rmax values of less than 150 RU are recommended for accurately determining kinetic values. […] The association constant, dissociation constant, affinity, and binding capacity of each of the Fabs for human CSF1R ECD was calculated using the Biacore T100 Evaluation software package using the 1:1 binding model.

[5] = target: T1, cynoCSF1R ECD-Fc; assay: competition ELISA, blocking of human IL34 binding to cynoCSF1R ECD-Fc
[6] = target: T4, hCSF1R ECD.506-Fc (human); assay: ELISA, plate coated with human CSF1R ECD-Fc
T4 construct: also called human CSF1R ECD-Fc fusion protein; human CSF1R ECD
Experimental: as §1

[7] = target: T1, cynoCSF1R ECD-Fc; assay: ELISA, plate coated with cynoCSF1R ECD-Fc
Experimental: as §1
as §2, with “cynomolgus” for “mouse”, “cynoCSF1R” for “mCSF1R”, “8, but without the 19 amino acid leader sequence).” for “93).”

IC50 [1] [µg/mL] | IC50, inhibition of CSF1-induced CSF1R phosphorylation (head prints 'Human CSF1/Human CSF1R ECD IC50') [2] [µg/mL] | IC50, inhibition of IL34-induced CSF1R phosphorylation (head prints 'Human IL34/Human CSF1R ECD IC50') [2] [µg/mL] | binding result [3] | Kd [4] [pM] | koff [4] [s⁻¹] | kon [4] [M⁻¹ s⁻¹] | IC50 [5] [µg/mL] | EC50 [6] [µg/mL] | EC50 [7] [µg/mL] | Binder
0.0274 | 0.778 | 0.453 | no binding (tested: 2000 ng/ml) | 340 | 0.00122 | 3.56e+06 | 0.0364 | 0.0142 | 0.0144 | B1
0.028 | 1.32 | 0.481 | no binding (tested: 2000 ng/ml) | 280 | 0.00066 | 2.32e+06 | 0.0374 | 0.0148 | 0.0138 | B2
0.0311 | 0.814 | 0.384 | no binding (tested: 2000 ng/ml) | 320 | 0.000921 | 2.87e+06 | 0.0424 | 0.0165 | 0.0167 | B3
0.0278 | 0.682 | 0.397 | no binding (tested: 2000 ng/ml) | 250 | 0.000742 | 2.95e+06 | 0.0365 | 0.0162 | 0.0166 | B4
0.026 | 0.435 | 0.633 | no binding (tested: 2000 ng/ml) | 350 | 0.000473 | 1.34e+06 | 0.0408 | 0.0115 | 0.0175 | B5
0.0247 | 0.508 | 0.667 | no binding (tested: 2000 ng/ml) | 500 | 0.000664 | 1.32e+06 | 0.0537 | 0.0143 | 0.0309 | B6
0.0605 | 0.742 | 0.364 | no binding (tested: 2000 ng/ml) | 1170 | 0.00404 | 3.47e+06 | 0.676 | 0.0214 | 1.06 | B7
– | 0.438 | 0.474 | no binding (tested: 2000 ng/ml) | 530 | 0.00179 | 3.4e+06 | 0.248 | 0.0179 | 0.155 | B8
